Test results: patent US20230135471A1 (INTEGRATED DNA TECHNOLOGIES, published 2023)
Substitutions are numbered along the chain they refer to.

B1: CM149 (designed binder)
Ubv: MHHHHHHGGSGYLIFVRMLTGKMIELEVMPSDTIEVIKAKIQDHEGIPLDEQHLTFQGTLLDDGYTLGDYNLLIDPKKMPLLRMQ
B2: CM149-DM (designed binder)
Ubv: B1 Ubv with P80L, L81V
notes: also called CM210

What was measured:
[1] = biological target: MBP tagged 53BP1 fragment (a.a. 1484-1603); assay: BLI, fold change Ka of Ubv/Ka of CM1
[2] = biological target: MBP tagged 53BP1 fragment (a.a. 1484-1603); assay: BLI, KA (M-1), log axis

Row | Binder | binding result [1] | binding result [2]
1 | B1 | binds | –
2 | B2 | – | binds
